The source of these data is article PMC4865107.

As usually defined, the Kd is the free concentration of one partner at which half of the binding sites on the other are occupied at equilibrium, for simple one-to-one binding. Low readings indicate a tighter complex, high ones a looser complex.

The test system of data set [1] is Topo IV. The experiment in a line: EMSA. The note with it: Topo IV alone; stated as bound poorly; 1 mM spermidine, 30 mM potassium glutamate, 10 mM DTT, 6 mM MgCl2, 10% glycerol, pH 7.4, 15 min at RT; 4% native PAGE (plasmid: 0.8% agarose, 0.5x TAE, 4 C). A general note: In EMSA bound probe runs differently from free probe, usually more slowly.
For data set [2], the system named is Topo IV;XerC;XerD (Escherichia coli?;Escherichia coli?;Escherichia coli?). The experiment in a line: EMSA (agarose). The note with it: 50 nM XerCD; migration delay seen with 40 nM Topo IV; 1 mM spermidine, 30 mM potassium glutamate, 10 mM DTT, 6 mM MgCl2, 10% glycerol, pH 7.4, 15 min at RT; 4% native PAGE (plasmid: 0.8% agarose, 0.5x TAE, 4 C).
Data set [3] relates to Topo IV. The experiment in a line: EMSA (agarose). As to conditions: no XerCD; 200 nM Topo IV required for migration delay; 1 mM spermidine, 30 mM potassium glutamate, 10 mM DTT, 6 mM MgCl2, 10% glycerol, pH 7.4, 15 min at RT; 4% native PAGE (plasmid: 0.8% agarose, 0.5x TAE, 4 C).

For the substance dif probe, 250 bp, in the data set on Topo IV [1], the Kd is > 100 nM.

Consider “negatively supercoiled plasmid containing dif”, for which the binding is 40 nM in data set [2] and 200 nM in the data set on Topo IV [3].
